# Laboratory results reported in patent US20240376226A1.
# Biological target: neutravidin (UniProt P02701)
# Assay: phage ELISA, neutravidin alone
# Sequence of neutravidin (P02701 25-152): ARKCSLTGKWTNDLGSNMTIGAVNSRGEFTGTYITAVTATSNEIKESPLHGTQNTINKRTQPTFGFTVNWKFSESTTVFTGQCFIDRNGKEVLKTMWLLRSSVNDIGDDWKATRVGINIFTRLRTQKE
row,Binder,NAv bkgd
1,"GGLCPINDWEPQDICW (peptide, not shown: large carriers) [Phage clone J467F08 displaying Peptide-27]",0.062
2,"GGLECFDPEIPEAFCI (peptide, not shown: large carriers) [Phage clone J466C07 displaying Peptide-24]",0.053
3,"GGIQCHDPDLPSPCYI (peptide, not shown: large carriers) [Phage clone J465E03 displaying Peptide-21]",0.052
4,"GGMSDCGDPGVEICTH (peptide, not shown: large carriers) [Phage clone J457A04 displaying Peptide-20]",0.092
5,"GGLCMIGDWLPGDVCL (peptide, not shown: large carriers) [Phage clone J467D04 displaying Peptide-28]",0.058
6,"GGNCHDPDIPAYVLCS (peptide, not shown: large carriers) [Phage clone J479B08 displaying Peptide-26]",0.084
7,"GGQGCGTIADPEPHCW (peptide, not shown: large carriers) [Phage clone J466C02 displaying Peptide-25]",0.061
8,"GGLGCNDIDPGEQCIV (peptide, not shown: large carriers) [Phage clone J465D07 displaying Peptide-23]",0.055
9,"GGDSVCADPEVPICEI (peptide, not shown: large carriers) [Phage clone J476C07 displaying Peptide-19]",0.051
10,"GGEWCLFDPDVPTCQD (peptide, not shown: large carriers) [Phage clone J465F09 displaying Peptide-22]",0.051
